Legend:
[1] = dynamic PET/CT imaging after lumbar infusion; assay type: in vivo, Sprague–Dawley rats; conditions: rats
[2] = dynamic PET/CT imaging after cisterna magna infusion; assay type: in vivo, Sprague–Dawley rats; conditions: rats

Substance: Al[^18F]F-7: aluminum [18F]fluoride restrained complexing agent (RESCA) conjugated rat serum albumin (RSA) reference tracer
- Cmax, intracranial space (ICS) [1]: 0.27 %ID
- tmax, lumbar vertebra L1-L2 ([1]; median(range)): 25(35) min
- Cmax (maximum SUV), cervical and thoracic (T1-T2) vertebra (spinal canal) ([2]; geometric mean (CV), listed as 7): 4.5(17%) SUV
- tmax, cisterna magna ([2]; median(range)): 20(0) min

Source: publication PMC12229972 (EJNMMI Radiopharmacy and Chemistry, 2025)
